What was measured:
[1] = molecular target: heparan sulfate proteoglycan (HSPG) expressed on HeLa cells; test: cell-based or functional assay
[2] = molecular target: T1, EpCAM (epithelial cell adhesion molecule) expressed on the cell surface of human tumor cells (human, UniProt P16422 24-314); test: flow cytometry on HCT116 and SW480 cells; 100 nM antibody with 300 IU/mL heparin, Alexa488 anti-human Fc
T1 construct: whole, on cells; also called cell surface EpCAM; EpCAM receptor
T1 sequence (looked up): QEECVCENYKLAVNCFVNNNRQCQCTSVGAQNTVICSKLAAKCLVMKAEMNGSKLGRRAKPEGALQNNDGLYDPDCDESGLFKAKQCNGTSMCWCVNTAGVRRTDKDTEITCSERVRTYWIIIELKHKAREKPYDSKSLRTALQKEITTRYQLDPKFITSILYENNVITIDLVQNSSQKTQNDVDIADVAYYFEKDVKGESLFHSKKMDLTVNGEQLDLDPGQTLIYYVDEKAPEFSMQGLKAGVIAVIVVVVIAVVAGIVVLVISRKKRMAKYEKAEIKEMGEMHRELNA
Procedure: Cell surface-binding levels of the indicated CTs, coincubated at 100 nM with 300 IU/mL heparin for 1 h at 4° C. with the indicated cells before analysis (lower panels). An isotype control is used as a negative control.
Then, each antibody was reacted with antibodies specific for human Fc to which Alexa488 (green fluorescence) was linked, at 4° C. for 30 min. After washing with PBS, the cells were analyzed by flow cytometry.

B1: CT05 (antibody, V domains shown)
VH: EVQLVESGGGLVQPGGSLRLSCAASGYTFTSYVMHWVRQAPGKGLEWVSAINPYNDGNYYADSVKGRFTISRDNSRKTLYLQMNSLRAEDTAVYYCARGAYKRGYAMDYWGQGTTVTVSS
VL: DIQMTQSPSSLSASVGDRVTITCKSSQSLLNSRDGKNYLAWYQQKPGKAPKLLIYDASNLETGVPSRFSGSGSGTDFTFTISSLQPEDIATYFCQQYWYWMYTFGGGTKVEIKR
notes: Intact IgG without a cyclic peptide; also called CT05 VL variant
Q: With B1 as the binder, how does the fluorescence intensity of internalized antibody relative to TMab4-WYW (confocal microscopy, HeLa cells, 1 µM, 6 h) [1] read?
A: Its fluorescence intensity of internalized antibody relative to TMab4-WYW (confocal microscopy, HeLa cells, 1 µM, 6 h) is 17.3%.

Q: Does B1 bind [2]?
A: Result: no binding (tested: 100 nM)
